Molecular target: WD repeat domain 5 (WDR5), human, endogenous in human mesenchymal stem cells (human, UniProt P61964 2-334)
Assay: Co-IP with HA antibody, stem cells from apical papilla overexpressing HA-KDM6B
Protocol: On the next day, the cells were added with Protein A/G beads and rotated on a rotary shaker at 4° C. for 2 hours. […] All cells were incubated overnight to form a complex of protein-antibody-agarose bead. […] (2) Grouping: Input group (loading amount of 25 μg); antibody group (loading amount of 800 μg, 2 μg of antibody); IgG group (loading amount of 800 μg, 2 μg of antibody). Samples were diluted with lysate. […] (3) Preparation of protein A/G beads

binding result: binds
B1: HA-KDM6B (full-length KDM6B with HA tag, overexpressed in stem cells from apical papilla) (enzyme)
chain: MHRAVDPPGARAAREAFALGGLSCAGAWSSCPPHPPPRSAWLPGGRCSASIGQPPLPAPLPPSHGSSSGHPSKPYYAPGAPTPRPLHGKLESLHGCVQALLREPAQPGLWEQLGQLYESEHDSEEATRCYHSALRYGGSFAELGPRIGRLQQAQLWNFHTGSCQHRAKVLPPLEQVWNLLHLEHKRNYGAKRGGPPVKRAAEPPVVQPVPPAALSGPSGEEGLSPGGKRRRGCNSEQTGLPPGLPLPPPPLPPPPPPPPPPPPPLPGLATSPPFQLTKPGLWSTLHGDAWGPERKGSAPPERQEQRHSLPHPYPYPAPAYTAHPPGHRLVPAAPPGPGPRPPGAESHGCLPATRPPGSDLRESRVQRSRMDSSVSPAATTACVPYAPSRPPGLPGTTTSSSSSSSSNTGLRGVEPNPGIPGADHYQTPALEVSHHGRLGPSAHSSRKPFLGAPAATPHLSLPPGPSSPPPPPCPRLLRPPPPPAWLKGPACRAAREDGEILEELFFGTEGPPRPAPPPLPHREGFLGPPASRFSVGTQDSHTPPTPPTPTTSSSNSNSGSHSSSPAGPVSFPPPPYLARSIDPLPRPPSPAQNPQDPPLVPLTLALPPAPPSSCHQNTSGSFRRPESPRPRVSFPKTPEVGPGPPPGPLSKAPQPVPPGVGELPARGPRLFDFPPTPLEDQFEEPAEFKILPDGLANIMKMLDESIRKEEEQQQHEAGVAPQPPLKEPFASLQSPFPTDTAPTTTAPAVAVTTTTTTTTTTTATQEEEKKPPPALPPPPPLAKFPPPSQPQPPPPPPPSPASLLKSLASVLEGQKYCYRGTGAAVSTRPGPLPTTQYSPGPPSGATALPPTSAAPSAQGSPQPSASSSSQFSTSGGPWARERRAGEEPVPGPMTPTQPPPPLSLPPARSESEVLEEISRACETLVERVGRSATDPADPVDTAEPADSGTERLLPPAQAKEEAGGVAAVSGSCKRRQKEHQKEHRRHRRACKDSVGRRPREGRAKAKAKVPKEKSRRVLGNLDLQSEEIQGREKSRPDLGGASKAKPPTAPAPPSAPAPSAQPTPPSASVPGKKAREEAPGPPGVSRADMLKLRSLSEGPPKELKIRLIKVESGDKETFIASEVEERRLRMADLTISHCAADVVRASRNAKVKGKFRESYLSPAQSVKPKINTEEKLPREKLNPPTPSIYLESKRDAFSPVLLQFCTDPRNPITVIRGLAGSLRLNLGLFSTKTLVEASGEHTVEVRTQVQQPSDENWDLTGTRQIWPCESSRSHTTIAKYAQYQASSFQESLQEEKESEDEESEEPDSTTGTPPSSAPDPKNHHIIKFGTNIDLSDAKRWKPQLQELLKLPAFMRVTSTGNMLSHVGHTILGMNTVQLYMKVPGSRTPGHQENNNFCSVNINIGPGDCEWFAVHEHYWETISAFCDRHGVDYLTGSWWPILDDLYASNIPVYRFVQRPGDLVWINAGTVHWVQATGWCNNIAWNVGPLTAYQYQLALERYEWNEVKNVKSIVPMIHVSWNVARTVKISDPDLFKMIKFCLLQSMKHCQVQRESLVRAGKKIAYQGRVKDEPAYYCNECDVEVFNILFVTSENGSRNTYLVHCEGCARRRSAGLQGVVVLEQYRTEELAQAYDAFTLAPASTSR
notes: whole, on cells; Full-length protein expressed inside human SCAPs and pulled down from lysate with HA antibody; also called PQCXIN-HA-KDM6B; SCAPs-HA-KDM6B; not shown: HA tag

Source: patent US20250041387A1 (BEIJING STOMATOLOGICAL HOSPITAL CAPITAL MEDICAL UNIVERSITY, published 2025)
